Patent US11306156
Values joined by “and” are separate entries in the source; they are usually repeats but may differ in a detail not shown here. Equal entries are not always repeated.

Legend:
[1] = biological target: tissue factor (TF) antigen (UniProt P13726); test: SPR; Fab captured by anti-His, TF as analyte; LCCA set 9823
[2] = biological target: tissue factor (TF) antigen (UniProt P13726); test: SPR; Fab captured by anti-His, TF as analyte; LCCA set 9058
[3] = biological target: tissue factor (TF) antigen (UniProt P13726); test: SPR; Fab captured by anti-His, TF as analyte; LCCA set 9822
[4] = biological target: D3H44 light chain Q124E_S131T_T178F_T180E (Kabat) with N-terminal HA or FLAG tag; test: LCCA, SPR read-out of light-chain tags; light-chain DNA 1:3 normalized to 1:1; competing light chain m21
[5] = biological target: D3H44 light chain Q124R_T178R (Kabat) with N-terminal HA or FLAG tag; test: LCCA, SPR read-out of light-chain tags; light-chain DNA 1:3 normalized to 1:1; competing light chain m22
[6] = biological target: D3H44 light chain Q124K_T178R (Kabat) with N-terminal HA or FLAG tag; test: LCCA, SPR read-out of light-chain tags; light-chain DNA 1:3 normalized to 1:1; competing light chain m17
[7] = biological target: D3H44 light chain Q124R_T178R (Kabat) with N-terminal HA or FLAG tag; test: as above
[8] = biological target: D3H44 light chain T178R (Kabat) with N-terminal HA or FLAG tag; test: as above
[9] = biological target: D3H44 light chain Q124R_Q160K_T178R (Kabat) with N-terminal HA or FLAG tag; test: as above
[10] = biological target: D3H44 light chain Q124R_T178R (Kabat) with N-terminal HA or FLAG tag; test: LCCA, SPR read-out of light-chain tags; light-chain DNA 1:9 normalized to 1:1; competing light chain m17
[11] = biological target: D3H44 light chain Q124E_Q160E_T180E (Kabat) with N-terminal HA or FLAG tag; test: LCCA, SPR read-out of light-chain tags; light-chain DNA 1:3 normalized to 1:1; competing light chain m21
[12] = biological target: D3H44 light chain Q124E_Q160E_T180E (Kabat) with N-terminal HA or FLAG tag; test: LCCA, SPR read-out of light-chain tags; light-chain DNA 1:9 normalized to 1:1; competing light chain m21
[13] = biological target: D3H44 light chain Q124E_Q160E_T180E (Kabat) with N-terminal HA or FLAG tag; test: LCCA, SPR read-out of light-chain tags; light-chain DNA 1:3 normalized to 1:1; competing light chain m18
[14] = biological target: D3H44 light chain Q124E_Q160E_T180E (Kabat) with N-terminal HA or FLAG tag; test: LCCA, SPR read-out of light-chain tags; light-chain DNA 1:3 normalized to 1:1; competing light chain m20
[15] = biological target: D3H44 light chain Q124E_Q160E_T180E (Kabat) with N-terminal HA or FLAG tag; test: LCCA, SPR read-out of light-chain tags; light-chain DNA 1:3 normalized to 1:1; competing light chain m16
[16] = biological target: D3H44 light chain Q124R_Q160K_T178R (Kabat) with N-terminal HA or FLAG tag; test: LCCA, SPR read-out of light-chain tags; light-chain DNA 1:3 normalized to 1:1; competing light chain m29
[17] = biological target: D3H44 light chain Q124R_Q160K_T178R (Kabat) with N-terminal HA or FLAG tag; test: LCCA, SPR read-out of light-chain tags; light-chain DNA 1:3 normalized to 1:1; competing light chain m22
[18] = biological target: D3H44 light chain Q124E_S131T_T178Y_T180E (Kabat) with N-terminal HA or FLAG tag; test: LCCA, SPR read-out of light-chain tags; light-chain DNA 1:3 normalized to 1:1; competing light chain m20
[19] = biological target: D3H44 light chain Q124E_S131T_T178F_T180E (Kabat) with N-terminal HA or FLAG tag; test: as above
[20] = biological target: D3H44 light chain Q124E_S176L_T180E (Kabat) with N-terminal HA or FLAG tag; test: as above
[21] = biological target: D3H44 light chain Q124R_Q160K_T178R (Kabat) with N-terminal HA or FLAG tag; test: LCCA, SPR read-out of light-chain tags; light-chain DNA 1:3 normalized to 1:1; competing light chain m28
[22] = biological target: tissue factor (TF) antigen (UniProt P13726); test: SPR; Fab captured by anti-His, TF as analyte; LCCA set 9819
[23] = biological target: D3H44 light chain Q124R_T178K (Kabat) with N-terminal HA or FLAG tag; test: LCCA, SPR read-out of light-chain tags; light-chain DNA 1:3 normalized to 1:1; competing light chain m17
[24] = biological target: D3H44 light chain T178R (Kabat) with N-terminal HA or FLAG tag; test: LCCA, SPR read-out of light-chain tags; light-chain DNA 1:3 normalized to 1:1; competing light chain m19
[25] = biological target: D3H44 light chain Q124E_T180E (Kabat) with N-terminal HA or FLAG tag; test: LCCA, SPR read-out of light-chain tags; light-chain DNA 1:3 normalized to 1:1; competing light chain m18
[26] = biological target: D3H44 light chain Q124E_Q160E_T180E (Kabat) with N-terminal HA or FLAG tag; test: LCCA, SPR read-out of light-chain tags; light-chain DNA 1:3 normalized to 1:1; competing light chain m26
[27] = biological target: tissue factor (TF) antigen (UniProt P13726); test: SPR (ProteOn), Fab captured on anti-penta-His, TF as analyte, 1:1 fit; estimated value (*) taken from the same Fab with another L chain tag
[28] = biological target: tissue factor (TF) antigen (UniProt P13726); test: SPR (ProteOn), Fab captured on anti-penta-His, TF as analyte, 1:1 fit
[29] = biological target: tissue factor (TF) antigen (UniProt P13726); test: SPR; Fab captured by anti-His, TF as analyte; LCCA set 9820
[30] = biological target: D3H44 light chain Q124E_V133E_Q160F (Kabat) with N-terminal HA or FLAG tag; test: LCCA, SPR read-out of light-chain tags; light-chain DNA 1:3 normalized to 1:1; competing light chain m23
[31] = biological target: D3H44 light chain Q124R (Kabat) with N-terminal HA or FLAG tag; test: LCCA, SPR read-out of light-chain tags; light-chain DNA 1:3 normalized to 1:1; competing light chain m24
[32] = biological target: tissue factor (TF) antigen (UniProt P13726); test: SPR; Fab captured by anti-His, TF as analyte; LCCA set 9054
[33] = biological target: tissue factor (TF) antigen (UniProt P13726); test: SPR; Fab captured by anti-His, TF as analyte; LCCA set 9053

D3H44 Fab heterodimer, H Q39R_H172R_Q179K / L Q38E_Q124E_Q160E_T180E (H1L1 Fab of LCCA set 9823)
Change in KD with respect to wild type (-(log(KD design) - log(KD wt))) [1]: -0.18
Kd [1]: 0.24 nM

D3H44 Fab heterodimer, H A139W_L143E_K145T_Q179E / L F116A_Q124R_L135V (H1L1 Fab of LCCA set 9058)
Change in KD with respect to wild type (-(log(KD design) - log(KD wt))) [2]: 0.12
Kd [2]: 0.12 nM

D3H44 Fab heterodimer, H Q39R_D146G_Q179K / L Q38E_Q124E_Q160E_T180E (H1L1 Fab of LCCA set 9822)
Change in KD with respect to wild type (-(log(KD design) - log(KD wt))) [3]: 0.17
Kd [3]: 0.11 nM

D3H44 Fab heavy chain L143E_K145T_Q179E_S188L (Kabat) with C-terminal ABD2-His6 tag
H1L1:H1L2 normalized median ratio [4]: 23%
H1L1:H1L2 normalized median ratio [5]: 77%
H1L1:H1L2 normalized median scalar value ln(r1/f1) [5]: 1.19

D3H44 Fab heavy chain L143E_K145T_Q179D (Kabat) with C-terminal ABD2-His6 tag
H1L1:H1L2 normalized median ratio [6]: 86%
H1L1:H1L2 normalized median scalar value ln(r1/f1) [6]: 1.78
H1L1:H1L2 normalized median ratio [7]: 87%
H1L1:H1L2 normalized median scalar value ln(r1/f1) [7]: 1.9
H1L1:H1L2 normalized median ratio [8]: 76%
H1L1:H1L2 normalized median scalar value ln(r1/f1) [8]: 1.13
H1L1:H1L2 normalized median ratio [9]: 84%
H1L1:H1L2 normalized median scalar value ln(r1/f1) [9]: 1.68
H1L1:H1L2 normalized median ratio [10]: 82%
H1L1:H1L2 normalized median scalar value ln(r1/f1) [10]: 1.55
H1L1:H1L2 normalized median ratio [11]: 13%
H1L1:H1L2 normalized median ratio [12]: 18%
H1L1:H1L2 normalized median ratio [13]: 24%
H1L1:H1L2 normalized median ratio [14]: 16%
H1L1:H1L2 normalized median ratio [15]: 14%

D3H44 Fab heavy chain L143E_K145T_S188L (Kabat) with C-terminal ABD2-His6 tag
H1L1:H1L2 normalized median ratio [16]: 74%
H1L1:H1L2 normalized median scalar value ln(r1/f1) [16]: 1.03
H1L1:H1L2 normalized median ratio [17]: 59%
H1L1:H1L2 normalized median scalar value ln(r1/f1) [17]: 0.37
H1L1:H1L2 normalized median ratio [18]: 26%
H1L1:H1L2 normalized median ratio [19]: 41%
H1L1:H1L2 normalized median ratio [20]: 43%
H1L1:H1L2 normalized median ratio [21]: 57%
H1L1:H1L2 normalized median scalar value ln(r1/f1) [21]: 0.28

D3H44 Fab heterodimer, H Q39E_L143E_K145T_H172R_Q179E / L Q38R_Q124R_Q160K_T178R (H1L1 Fab of LCCA set 9819)
Change in KD with respect to wild type (-(log(KD design) - log(KD wt))) [22]: 0.03
Kd [22]: 0.15 nM

D3H44 Fab heavy chain L143E_K145T_Q179E (Kabat) with C-terminal ABD2-His6 tag
H1L1:H1L2 normalized median ratio [6]: 88%
H1L1:H1L2 normalized median scalar value ln(r1/f1) [6]: 2
H1L1:H1L2 normalized median ratio [8]: 89%
H1L1:H1L2 normalized median scalar value ln(r1/f1) [8]: 2.14
H1L1:H1L2 normalized median ratio [23]: 83%
H1L1:H1L2 normalized median scalar value ln(r1/f1) [23]: 1.62
H1L1:H1L2 normalized median ratio [9]: 84%
H1L1:H1L2 normalized median scalar value ln(r1/f1) [9]: 1.65
H1L1:H1L2 normalized median ratio [24]: 60%
H1L1:H1L2 normalized median scalar value ln(r1/f1) [24]: 0.41
H1L1:H1L2 normalized median ratio [25]: 40%
H1L1:H1L2 normalized median ratio [13]: 11%
H1L1:H1L2 normalized median ratio [14]: 16%
H1L1:H1L2 normalized median ratio [15]: 12% and 17%
H1L1:H1L2 normalized median ratio [26]: 17%

D3H44 Fab heterodimer, H L143E_K145T_S188L / L Q124R
Change in KD with respect to wild type (-(log(KD design) - log(KD wt))) [27]: -0.12
Kd [27]: 0.21 nM
Change in KD with respect to wild type (-(log(KD design) - log(KD wt))) [28]: -0.12
Kd [28]: 0.21 nM

D3H44 Fab heterodimer, H Q39E_L143E_K145T_Q179E / L Q38R_Q124R_Q160K_T178R (H1L1 Fab of LCCA set 9820)
Change in KD with respect to wild type (-(log(KD design) - log(KD wt))) [29]: -0.1
Kd [29]: 0.2 nM

D3H44 Fab heavy chain L143R (Kabat) with C-terminal ABD2-His6 tag
H2L2:H2L1 normalized median ratio [30]: 83%
H2L2:H2L1 normalized median ratio [31]: 17%

D3H44 Fab heterodimer, H A139G_Q179K_V190A / L Q124E_L135W_Q160E_T180E (H1L1 Fab of LCCA sets 9053, 9054)
Change in KD with respect to wild type (-(log(KD design) - log(KD wt))) [32]: 0.05
Kd [32]: 0.14 nM
Change in KD with respect to wild type (-(log(KD design) - log(KD wt))) [33]: 0.05
Kd [33]: 0.14 nM
